This note sets out measurements from doi:10.1101/2022.05.16.492121 (bioRxiv, 2022).

The series deals with the molecule itself. Put plainly: near-TIRF microscopy.

B1: Saccharomyces cerevisiae septin complex (Cdc3, Cdc10, Cdc11, Cdc12), polymerizable hetero-oligomer (complex)
chain 1: MSLKEEQVSIKQDPEQEERQHDQFNDVQIKQESQDHDGVDSQYTNGTQNDDSERFEAAESDVKVEPGLGMGITSSQSEKGQVLPDQPEIKFIRRQINGYVGFANLPKQWHRRSIKNGFSFNLLCVGPDGIGKTTLMKTLFNNDDIEANLVKDYEEELANDQEEEEGQGEGHENQSQEQRHKVKIKSYESVIEENGVKLNLNVIDTEGFGDFLNNDQKSWDPIIKEIDSRFDQYLDAENKINRHSINDKRIHACLYFIEPTGHYLKPLDLKFMQSVYEKCNLIPVIAKSDILTDEEILSFKKTIMNQLIQSNIELFKPPIYSNDDAENSHLSERLFSSLPYAVIGSNDIVENYSGNQVRGRSYPWGVIEVDNDNHSDFNLLKNLLIKQFMEELKERTSKILYENYRSSKLAKLGIKQDNSVFKEFDPISKQQEEKTLHEAKLAKLEIEMKTVFQQKVSEKEKKLQKSETELFARHKEMKEKLTKQLKALEDKKKQLELSINSASPNVNHSPVPTKKKGFLR
chain 2: MDPLSSVQPASYVGFDTITNQIEHRLLKKGFQFNIMVVGQSGLGKSTLINTLFASHLIDSATGDDISALPVTKTTEMKISTHTLVEDRVRLNINVIDTPGFGDFIDNSKAWEPIVKYIKEQHSQYLRKELTAQRERFITDTRVHAILYFLQPNGKELSRLDVEALKRLTEIANVIPVIGKSDTLTLDERTEFRELIQNEFEKYNFKIYPYDSEELTDEELELNRSVRSIIPFAVVGSENEIEINGETFRGRKTRWSAINVEDINQCDFVYLREFLIRTHLQDLIETTSYIHYEGFRARQLIALKENANSRSSAHMSSNAIQR
chain 3: MSGIIDASSALRKRKHLKRGITFTVMIVGQSGSGRSTFINTLCGQQVVDTSTTILLPTDTSTEIDLQLREETVELEDDEGVKIQLNIIDTPGFGDSLDNSPSFEIISDYIRHQYDEILLEESRVRRNPRFKDGRVHCCLYLINPTGHGLKEIDVEFIRQLGSLVNIIPVISKSDSLTRDELKLNKKLIMEDIDRWNLPIYNFPFDEDEISDEDYETNMYLRTLLPFAIIGSNEVYEMGGDVGTIRGRKYPWGILDVEDSSISDFVILRNALLISHLHDLKNYTHEILYERYRTEALSGESVAAESIRPNLTKLNGSSSSSTTTRRNTNPFKQSNNINNDVLNPASDMHGQSTGENNETYMTREEQIRLEEERLKAFEERVQQELLLKRQELLQREKELREIEARLEKEAKIKQEE
chain 4: MSAATATAAPVPPPVGISNLPNQRYKIVNEEGGTFTVMLCGESGLGKTTFINTLFQTVLKRADGQQHRQEPIRKTVEIDITRALLEEKHFELRVNVIDTPGFGDNVNNNKAWQPLVDFIDDQHDSYMRQEQQPYRTKKFDLRVHAVLYFIRPTGHGLKPIDIETMKRLSTRANLIPVIAKADTLTAQELQQFKSRIRQVIEAQEIRIFTPPLDADSKEDAKSGSNPDSAAVEHARQLIEAMPFAIVGSEKKFDNGQGTQVVARKYPWGLVEIENDSHCDFRKLRALLLRTYLLDLISTTQEMHYETYRRLRLEGHENTGEGNEDFTLPAIAPARKLSHNPRYKEEENALKKYFTDQVKAEEQRFRQWEQNIVNERIRLNGDLEEIQGKVKKLEEQVKSLQVKKSHLK
B1: the binding result is listed as “binds”.
